{"source": "patent US10450355B2", "about": "“Lectins and uses thereof” (THE REGENTS OF THE UNIVERSITY OF MICHIGAN, priority 2014, dated 2019)", "molecules": {"B1": {"name": "D133G: BanLec mutant with a mutation in the first or second Greek Key sugar binding motif (protein)", "chain": "MNGAIKVGAWGGNGGSAFDMGPAYRIISVKIFSGDVVDGVDVTFTYYGKTETRHYGGSGGTPHEIVLQEGEYLVGMAGEVANYHGAVVLGKLGFSTNKKAYGPFGNTGGTPFSLPIAAGKISGFFGRGGKFLGAIGVYLEP"}, "B2": {"name": "H84K: BanLec mutant, H84 replaced by lysine (protein)", "chain": "B1 chain with H84K, G133D"}, "B3": {"name": "H84Y: BanLec mutant, H84 replaced by tyrosine (protein)", "chain": "B1 chain with H84Y, G133D"}, "B4": {"name": "H84D: BanLec mutant, H84 replaced by aspartic acid (protein)", "chain": "B1 chain with H84D, G133D"}, "B5": {"name": "H84E: BanLec mutant, H84 replaced by glutamic acid (protein)", "chain": "B1 chain with H84E, G133D"}, "B6": {"name": "H84T: BanLec variant in which the histidine at position 84 is replaced by a threonine (protein)", "chain": "B1 chain with H84T, G133D"}, "B7": {"name": "H84G: BanLec mutant, H84 replaced by glycine (protein)", "chain": "B1 chain with H84G, G133D"}, "B8": {"name": "H84W: BanLec mutant, H84 replaced by tryptophan (protein)", "chain": "B1 chain with H84W, G133D"}, "B9": {"name": "H84L: BanLec mutant, H84 replaced by leucine (protein)", "chain": "B1 chain with H84L, G133D"}, "B10": {"name": "H84Q: BanLec mutant, H84 replaced by glutamine (protein)", "chain": "B1 chain with H84Q, G133D"}, "B11": {"name": "H84F: BanLec mutant, H84 replaced by phenylalanine (protein)", "chain": "B1 chain with H84F, G133D"}}, "key": {"[1]": {"target": "BanLec variant H84T (recombinant, 6×His tag) (Musa acuminata, UniProt O22321, H84T)", "assay": "biochemical", "assay_type": "binding, banana"}, "[2]": {"target": "BanLec variant H84T (recombinant, 6×His tag)", "assay": "biochemical", "assay_type": "binding, banana", "details": "for Fold Change (Ka, WT vs H84T): WT compared with H84T"}, "[3]": {"target": "T1, BanLec, recombinant wild type (rBanLec, codon-optimized cDNA from gi71042661, C-terminal 6×His tag) (Musa acuminata, UniProt O22321)", "T1 sequence (O22321 1-141)": "B1 chain with G133D", "assay": "Isothermal titration calorimetry, binding constants of lectin for sugar", "design": "species or system banana", "details": "WT BanLec, ITC, 25° C., PBS, stoichiometry fixed at 1"}, "[4]": {"target": "T2, BanLec, natural (banana-derived) (Musa acuminata, UniProt O22321)", "T2 sequence (O22321 1-141)": "B1 chain with G133D", "assay": "Isothermal titration calorimetry, natural BanLec compared with rBanLec", "assay_type": "binding", "details": "ITC"}, "[5]": {"system": "the lectins (BanLec WT and H84T mutant)", "assay": "Isothermal titration calorimetry, general statement for the lectins", "design": "species or system banana", "details": "ITC, 25° C., PBS; relatively low binding constants", "method": "Isothermal Titration Calorimetry\nBinding constants of the lectins for methyl-α-D-mannopyranoside were determined by isothermal titration calorimetry using a MicroCal VP-ITC calorimeter (Micro-Cal, Northampton, Mass., USA) at 25° C. Data were analyzed using Origins Ver. 7 software supplied with the instrument. The lectin in PBS, generally at approx. 0.2 mM, was titrated with the ligand at 20 mM in the same buffer. The titration volumes were adjusted so that the titration proceeded to at least a 10-fold molar excess of ligand over lectin monomers. The relatively low binding constants (Ka<1000 M^−1) precluded obtaining full saturation or a definite sigmoidal titration curve from which a definitive stoichiometry can be calculated; thus, the stoichiometry was fixed at 1 for curve-fitting to determine Ka; values between about 0.5 and 2-3 had little effect on the Ka-value obtained."}, "[6]": {"system": "peripheral blood lymphocytes (PBL)", "assay": "Mitogenic activity by BrdU incorporation", "assay_type": "cell-based", "details": "for stimulation index (mitogenic activity): PBL, three days with lectin, BrdU, less than ten considered non-mitogenic; for mitogenicity, in words: relative to WT BanLec"}, "HIV-1 pseudo-typed virus": {"system": "HIV-1 pseudo-typed virus", "assay_type": "cell-based", "details": "for anti-HIV activity, in words: relative to WT BanLec"}, "[7]": {"system": "CD4+ peripheral blood mononuclear cells (PBMC)", "assay": "Flow cytometry of activation marker CD69", "assay_type": "cell-based"}, "[8]": {"system": "H5N1 avian influenza strain", "assay_type": "cell-based, influenza A virus"}, "[9]": {"assay": "Aggregation in solution during NMR studies", "assay_type": "physicochemical", "details": "NMR samples"}, "[10]": {"system": "PBMCs from healthy donors", "assay": "Bio-Plex cytokine assay", "assay_type": "cell-based, human", "details": "PBMC from multiple donors, 72 h"}, "[11]": {"system": "formaldehyde-treated rabbit erythrocytes", "assay": "Haemagglutination assay", "assay_type": "cell-based", "details": "rabbit red blood cells"}, "[12]": {"system": "1918 H1N1 pandemic influenza strain", "assay_type": "cell-based, influenza A virus"}, "HIV-1 JR-CSF": {"system": "HIV-1 JR-CSF", "assay_type": "in vivo, BLT humanized mice", "details": "75 μg vaginally ten minutes before vaginal HIV-1 JR-CSF challenge; six weeks; p=0.0359 vs PBS"}}, "note": "Substitutions are numbered along the chain they refer to. In names and notes the source's numbering stands.", "data": [{"molecule": "OC[C@H]1O[C@@H](O[C@H]2[C@H](O)[C@H](O)C(O)O[C@@H]2CO)[C@@H](O)[C@@H](O)[C@@H]1O", "note": "(some centres unmarked) [mannobiose]", "values": [{"measurement": "Ka", "setting": "[1]; H84T BanLec, ITC, 25° C., PBS, stoichiometry fixed at 1", "result": 227, "unit": "mM⁻¹"}, {"measurement": "KD-values, rBanLec vs H84T", "setting": "[2]", "result": "similar"}, {"measurement": "Fold Change (Ka, WT vs H84T)", "setting": "[2]", "result": 1.32}, {"measurement": "Ka", "setting": "[3]", "result": 300, "unit": "mM⁻¹"}]}, {"molecule": "CO[C@H]1O[C@H](CO)[C@@H](O)[C@H](O)[C@@H]1O", "note": "[methyl-α-mannoside, Methyl α-d-mannopyranoside]", "values": [{"measurement": "affinity for the ligand, BanLec vs rBanLec", "setting": "[4]", "result": "no difference"}, {"measurement": "Kd", "setting": "[1]", "result": 2830, "unit": "nM"}, {"measurement": "KD-values, rBanLec vs H84T", "setting": "[2]", "result": "similar"}, {"measurement": "Fold Change (Ka, WT vs H84T)", "setting": "[2]", "result": 1.09}, {"measurement": "Ka", "setting": "[5]", "result": "< 1000", "unit": "M⁻¹"}, {"measurement": "Kd", "setting": "[3]; read-out: Ka (converted)", "result": 2610, "unit": "nM"}]}, {"molecule": "GNA: Galanthus nivalis agglutinin, non-mitogenic negative control [reference compound]", "values": [{"measurement": "stimulation index (mitogenic activity)", "setting": "[6]", "result": "less than ten"}]}, {"molecule": "Griffithsin [reference compound]", "values": [{"measurement": "stimulation index (mitogenic activity)", "setting": "[6]", "result": "less than ten"}]}, {"molecule": "B1", "values": [{"measurement": "mitogenicity, in words", "setting": "[6]", "result": "abolished the mitogenic activity"}]}, {"molecule": "B2", "values": [{"measurement": "anti-HIV activity, in words", "setting": "HIV-1 pseudo-typed virus", "result": "marked loss"}, {"measurement": "mitogenicity, in words", "setting": "[6]", "result": "marked loss"}]}, {"molecule": "B3", "values": [{"measurement": "anti-HIV activity, in words", "setting": "HIV-1 pseudo-typed virus", "result": "minimal effects"}, {"measurement": "mitogenicity, in words", "setting": "[6]", "result": "minimal effects"}]}, {"molecule": "B4", "values": [{"measurement": "anti-HIV activity, in words", "setting": "HIV-1 pseudo-typed virus", "result": "marked loss"}, {"measurement": "mitogenicity, in words", "setting": "[6]", "result": "marked loss"}]}, {"molecule": "B5", "values": [{"measurement": "anti-HIV activity, in words", "setting": "HIV-1 pseudo-typed virus", "result": "marked loss"}, {"measurement": "mitogenicity, in words", "setting": "[6]", "result": "marked loss"}]}, {"molecule": "B6", "values": [{"measurement": "cell surface expression of activation marker CD69", "setting": "[7]", "result": "very little upregulation"}, {"measurement": "inhibition of replication of H5N1 avian influenza virus", "setting": "[8]", "result": "very active and equally inhibited replication"}, {"measurement": "inhibition of HIV replication (IC50), in words", "setting": "HIV-1 pseudo-typed virus", "result": "low nanomolar range"}, {"measurement": "anti-HIV inhibition relative to WT BanLec", "setting": "HIV-1 pseudo-typed virus; multiple different isolates of HIV", "result": "equal to or within one log"}, {"measurement": "stimulation of proliferation of lymphocytes", "setting": "[6]; concentrations up to 1 μM", "result": "did not stimulate the proliferation of lymphocytes"}, {"measurement": "aggregation over time in solution", "setting": "[9]", "result": "tendency to aggregate over time"}, {"measurement": "cytokine/chemokine production", "setting": "[10]", "result": "markedly reduced production of cytokines"}, {"measurement": "minimal agglutination concentration", "setting": "[11]", "result": 487, "unit": "µg/mL"}, {"measurement": "inhibition of replication of 1918 H1N1 virus", "setting": "[12]", "result": "very active and equally inhibited replication"}, {"measurement": "mice with detectable levels of viral RNA in the plasma", "setting": "HIV-1 JR-CSF", "result": "none of the mice"}]}, {"molecule": "B7", "values": [{"measurement": "anti-HIV activity, in words", "setting": "HIV-1 pseudo-typed virus", "result": "preserving some antiviral HIV activity"}, {"measurement": "mitogenicity, in words", "setting": "[6]", "result": "reasonably similar drop in mitogenicity as H84T"}]}, {"molecule": "B8", "values": [{"measurement": "anti-HIV activity, in words", "setting": "HIV-1 pseudo-typed virus", "result": "minimal effects"}, {"measurement": "mitogenicity, in words", "setting": "[6]", "result": "minimal effects"}]}, {"molecule": "B9", "values": [{"measurement": "anti-HIV activity, in words", "setting": "HIV-1 pseudo-typed virus", "result": "marked loss"}, {"measurement": "mitogenicity, in words", "setting": "[6]", "result": "marked loss"}]}, {"molecule": "B10", "values": [{"measurement": "anti-HIV activity, in words", "setting": "HIV-1 pseudo-typed virus", "result": "marked loss"}, {"measurement": "mitogenicity, in words", "setting": "[6]", "result": "marked loss"}]}, {"molecule": "B11", "values": [{"measurement": "anti-HIV activity, in words", "setting": "HIV-1 pseudo-typed virus", "result": "minimal effects"}, {"measurement": "mitogenicity, in words", "setting": "[6]", "result": "minimal effects"}]}]}
